Target: Cynomolgus TIGIT
Test: Biacore

- Kd: 69.5 nM
B1: 50C2 Humanized (Hu) (antibody, V domains shown)
VH: QVQLQESGPGLVKPSETLSLTCTVSGFSLTNYNINWIRQPPGKGLEWIGVIWTGGGTNYNSAFMSRVTISKDTSKNQVSLKLSSVTAADTAVYYCVREAYFSNYGFYFDYWGQGTLVTVSS
VL: DIQMTQSPSSLSASVGDRVTITCSASSSISSNYLHWYQQKPGKAPKLLIYRTSNLASGVPSRFSGSGSGTDFTLTISSLQPEDFATYYCQQGSSIPRTFGGGTKVEIK

From patent publication US20240425588A1 (published 2024)
